Reference: patent publication US6168954A, “Soybean glutathione-S-transferase enzymes” (E. I. du Pont de Nemours & Company, priority 1999, dated 2001)

B1: ssm.pk0026.g11: soybean type II GST encoded by cDNA insert in clone ssm.pk0026.g11 (protein)
chain: MASASVGKELTLYSYWRSSCSHRVRIALNLKGLKYEYKPVNLLKGEQSRPEFLQLNPVGCVPVLVDDHVVLYDSFAIIMYLEDKYPHNPLLPHDIYKRAINFQAASVVSSTIQPLHNLSLLNYIGEKVGPDEKLPWAQSIIRRGFKALEKLLKDHTGRYATGDEVFLADIFLAPQLHAAFKRFNIHMNEFPILARLHETYNEIPAFQEALPENQPDAVH
B2: se6.pk0048.d7: soybean type III GST encoded by cDNA insert in clone se6.pk0048.d7 (protein)
chain: MADEVVLLDFWPSPFGMRVRIALAEKGIKYESKEEDLQNKSPLLLKMNPVHKKIPVLIHNGKPICESLVAVQYIEEVWNDRNPLLPSDPYQRAQARFWADFVDNKIFDLGRKIWTSKGEEKEAAKKEFIEALKLLEEQLGDKTYFGGDDLGFVDIALIPFDTWFKTFGSLNIESECPKFVAWAKRCLQKDSVAKSLPDQHKVYEFIMDIRKKFDIE
B3: ssl.pk0002.f7: soybean type III GST encoded by cDNA insert in clone ss1.pk0002.f7 (protein)
chain: MADGVVLLDTWASMFGMRVRIALAEKGVEYEYKEENLRNKSPLLLQMNPIHKKIPVLIHNGKPICESAIIVQYIDEVWNDKAPILPSDPYERAQARFWVDYIDKKVYDTWRKMWLSKGEEHEAGKKEFISIFKQLEETLSDKAYYGSDTFGFLDIGLIPFYSWFYTFETYGNFKMEEECPKLVAWAKRCMQREAVSKSLS
B4: se1.27b04: soybean type I GST encoded by cDNA insert in clone se1.27b04 (protein)
chain: MICLHEKEVDFELVPVNVFAAEHKQPPFLSKNPFGFIPVLEDGDLTLFESRAITAYVAEKFKETEPDLIRHKDAKEAALVKVWTEVESHYYEPAVSPIIYEYFVAPFQGKEPDKSVIDTNVEKLKTVLDVYEAKLSSTKYLAGDFYSLADLSHVSETHYLMQTPCASMINELPHVKAWWEDISSRPAFNKVVGGMSFGQNH

Test: GST conjugation activity with chlorimuron ethyl (HPLC)
Type: biochemical
Settings: 0.4 mM electrophilic substrate, 4 mM glutathione, 0.1 M MOPS pH 7.0, corrected for uncatalyzed reaction
Excerpt: (§1) The GST enzymes, expressed and purified as described in Example 5 were screened for their ability to metabolize a variety of substrates. Substrates tested included the three herbicide electrophilic substrates chlorimuron ethyl, alachlor, and Atrazine, and four model electrophilic substrates, 1-chloro-2, 4-dinitro-benzene (CDNB), ethacrynic acid, t-stilbene oxide, and 1,2-epoxy-3-(p-nitro-phenoxy) propane. The enzymes were purified as described in Example 5 and used in the following assay.
(§2) For each enzyme, the conjugation reaction with each electrophilic substrate was performed by incubating 0.3 to 30 μg enzyme in 0.1 M MOPS (pH 7.0) containing 0.4 mM of the electrophilic substrate. The reaction was inititated by the addition of glutathione to a final concentration of 4 mM. After 5 to 30 min, the reaction was terminated by the addition of 45 μL acetonitrile, microfuged for 10 min to remove precipitated protein, and then the supematent was removed and added to 65 μL of water. This sample was chromatographed on a Zorbax C8 reverse phase HPLC column (3 μm particle size, 6.2 mm×8 cm) using a combination of linear gradients (flow=1.5 mL/min) of 1% H3 PO4 in water (solvent A) and 1% H3 PO4 in acetonitile. The gradient started with 5% solvent B, progressing from 5% to 75% solvent B between 1 and 10 min, and from 75% to 95% solvent B between 10 and 12 min. Control reactions without enzyme were performed to correct for uncatalyzed reaction. Quantitation of metabolites were based on an assumption that the extinction coefficient of the conjugate was identical to that of the electrophilic substrate.
(§3) Activities are related to the activity of a known and previously isolated and purified GST enzyme, GH2/4 (also called GST 26) (Czarnecka et al., Plant Molecular Biology 3:45-58 (1984); Ulmasoz et al., Plant Physiol 108:919-927 (1995)).

Molecule | Activity of soybean GST enzyme, Chlorimuron Ethyl
B1 | 0.0 nmol/min/mg
B2 | 0.5 nmol/min/mg
B3 | 0.9 nmol/min/mg
B4 | 0.1 nmol/min/mg

Test: GST conjugation activity with alachlor (HPLC)
Type: biochemical
Settings: 0.4 mM electrophilic substrate, 4 mM glutathione, 0.1 M MOPS pH 7.0, corrected for uncatalyzed reaction
Excerpt: as §1, §2, §3

Molecule | Activity of soybean GST enzyme, Alachlor
B1 | 0 nmol/min/mg
B2 | 8 nmol/min/mg
B3 | 30 nmol/min/mg
B4 | 0 nmol/min/mg

Test: GST conjugation activity with Atrazine (HPLC)
Type: biochemical
Settings: 0.4 mM electrophilic substrate, 4 mM glutathione, 0.1 M MOPS pH 7.0, corrected for uncatalyzed reaction
Excerpt: as §1, §2, §3

Molecule | Activity of soybean GST enzyme, Atrazine
B1 | 0.00 nmol/min/mg
B2 | 0.76 nmol/min/mg
B3 | 0.00 nmol/min/mg
B4 | 0.00 nmol/min/mg

Test: GST conjugation activity with CDNB (HPLC)
Type: biochemical
Settings: 0.4 mM electrophilic substrate, 4 mM glutathione, 0.1 M MOPS pH 7.0, corrected for uncatalyzed reaction
Excerpt: as §1, §2, §3

Molecule | Activity of soybean GST enzyme, CDNB
B1 | 15 nmol/min/mg
B2 | 1379 nmol/min/mg
B3 | 2576 nmol/min/mg
B4 | 15 nmol/min/mg

Test: GST conjugation activity with ethacrynic acid (HPLC)
Type: biochemical
Settings: 0.4 mM electrophilic substrate, 4 mM glutathione, 0.1 M MOPS pH 7.0, corrected for uncatalyzed reaction
Excerpt: as §1, §2, §3

Molecule | Activity of soybean GST enzyme, Ethacrynic Acid
B1 | 5 nmol/min/mg
B2 | 4 nmol/min/mg
B3 | 68 nmol/min/mg
B4 | 11 nmol/min/mg

Test: GST conjugation activity with t-stilbene oxide (HPLC)
Type: biochemical
Settings: 0.4 mM electrophilic substrate, 4 mM glutathione, 0.1 M MOPS pH 7.0, corrected for uncatalyzed reaction
Excerpt: as §1, §2, §3

Molecule | Activity of soybean GST enzyme, T-Stilbene Oxide
B1 | 0.04 nmol/min/mg
B2 | 0.07 nmol/min/mg
B3 | 0.16 nmol/min/mg
B4 | 0.00 nmol/min/mg

Test: GST conjugation activity with 1,2-epoxy-3-(p-nitrophenoxy)propane (HPLC)
Type: biochemical
Settings: 0.4 mM electrophilic substrate, 4 mM glutathione, 0.1 M MOPS pH 7.0, corrected for uncatalyzed reaction
Excerpt: as §1, §2, §3

Molecule | Activity of soybean GST enzyme, 1,2-epoxy-3-(p-nitrophenoxy)propane
B1 | 2 nmol/min/mg
B2 | 9 nmol/min/mg
B3 | 10 nmol/min/mg
B4 | 0 nmol/min/mg
